In patent publication US20220204569:

Experiments:
[1] = system: ChrocodiLE (TAL-HT x15 GFP fusion) (Xanthomonas (engineered)); conditions: FRAP T1/2 68.53 ± 8.45 s (n = 4), live HeLa; nuclear CV 1.1
[2] = system: GFP fusion, 0 TAL-repeats (control) (Xanthomonas (engineered)); conditions: FRAP T1/2 1.87 ± 0.28 s (n = 3), live HeLa; nuclear CV 0.53
[3] = system: TAL-HT x1 GFP fusion (Xanthomonas (engineered)); conditions: FRAP T1/2 2.09 ± 0.40 s (n = 5), live HeLa; nuclear CV 0.45, uniform localization as control
[4] = system: TAL-HT x12 GFP fusion (Xanthomonas (engineered)); conditions: FRAP T1/2 67.84 ± 8.43 s (n = 4), live HeLa; nuclear CV 1.1
[5] = system: TAL-HT x2 GFP fusion (Xanthomonas (engineered)); conditions: FRAP T1/2 2.91 ± 0.22 s (n = 5), live HeLa; nuclear CV 0.40, uniform localization as control
[6] = system: TAL-HT x3 GFP fusion (Xanthomonas (engineered)); conditions: FRAP T1/2 6.30 ± 1.86 s (n = 5), live HeLa; nuclear CV 1.2
[7] = system: TAL-HT x8 GFP fusion (Xanthomonas (engineered)); conditions: FRAP T1/2 30.97 ± 6.79 s (n = 5), live HeLa; nuclear CV 0.87

Q: For HeLa nuclear genomic DNA (chromatin), which FRAP recovery half-time [1] is on record?
A: 68.5 s

Q: What about the FRAP recovery half-time [2] of the same substance?
A: 1.87 s

Q: And the FRAP recovery half-time [3]?
A: 2.09 s

Q: And the FRAP recovery half-time [4]?
A: 67.8 s

Q: And the FRAP recovery half-time [5]?
A: 2.91 s

Q: And the FRAP recovery half-time [6]?
A: 6.3 s

Q: And the FRAP recovery half-time [7]?
A: 31 s
